From article PMC4222368, “A human mitochondrial poly(A) polymerase mutation reveals the complexities of post-transcriptional mitochondrial gene expression” (Human Molecular Genetics, 2014)

Molecular target: the molecule itself
Test: SEC; gel filtration analysis of wild-type and mutant mtPAP isolated to electrophoretic purity

| Protein | stoichiometry N |
| --- | --- |
| human mitochondrial poly(A) polymerase (mtPAP), wild type, residues 44-538 (enzyme, UniProt Q9NVV4 44-538, looked up, human mitochondrial poly(A) polymerase (MTPAP, formerly PAPD1), residues 44-538, in pET28a; also called wild-type mtPAP; WT) EQPSGSVETGFEDKIPKRRFSEMQNERREQAQRTVLIHCPEKISENKFLKYLSQFGPINNHFFYESFGLYAVVEFCQKESIGSLQNGTHTPSTAMETAIPFRSRFFNLKLKNQTSERSRVRSSNQLPRSNKQLFELLCYAESIDDQLNTLLKEFQLTEENTKLRYLTCSLIEDMAAAYFPDCIVRPFGSSVNTFGKLGCDLDMFLDLDETRNLSAHKISGNFLMEFQVKNVPSERIATQKILSVLGECLDHFGPGCVGVQKILNARCPLVRFSHQASGFQCDLTTNNRIALTSSELLYIYGALDSRVRALVFSVRCWARAHSLTSSIPGAWITNFSLTMMVIFFLQRRSPPILPTLDSLKTLADAEDKCVIEGNNCTFVRDLSRIKPSQNTETLELLLKEFFEYFGNFAFDKNSINIRQGREQNKPDSSPLYIQNPFETSLNISKNVSQSQLQKFVDLARESAWILQQEDTDRPSISSNRPWGLVSLLLPSAPNR | 2 |
| human mitochondrial poly(A) polymerase (mtPAP), p.N478D mutant, residues 44-538 (enzyme, UniProt Q9NVV4 44-538, looked up, human mitochondrial poly(A) polymerase (MTPAP), residues 44-538, in pET28a, with the patient mutation p.N478D (c.1432A>G) made with the QuikChange kit; The mutation occurs in patients (spastic ataxia with optic atrophy); also called p.N478D mtPAP; mutant mtPAP) EQPSGSVETGFEDKIPKRRFSEMQNERREQAQRTVLIHCPEKISENKFLKYLSQFGPINNHFFYESFGLYAVVEFCQKESIGSLQNGTHTPSTAMETAIPFRSRFFNLKLKNQTSERSRVRSSNQLPRSNKQLFELLCYAESIDDQLNTLLKEFQLTEENTKLRYLTCSLIEDMAAAYFPDCIVRPFGSSVNTFGKLGCDLDMFLDLDETRNLSAHKISGNFLMEFQVKNVPSERIATQKILSVLGECLDHFGPGCVGVQKILNARCPLVRFSHQASGFQCDLTTNNRIALTSSELLYIYGALDSRVRALVFSVRCWARAHSLTSSIPGAWITNFSLTMMVIFFLQRRSPPILPTLDSLKTLADAEDKCVIEGNNCTFVRDLSRIKPSQNTETLELLLKEFFEYFGNFAFDKNSINIRQGREQNKPDSSPLYIQDPFETSLNISKNVSQSQLQKFVDLARESAWILQQEDTDRPSISSNRPWGLVSLLLPSAPNR | 2 |
